# Several values for one entry are separate records, joined by “and”; a condition that tells them apart may be missing. Equal values may be shown once.
# Tests used:
# [1] = target: the molecule itself; test: SEC; Superdex-200 Increase (10/300 GL), 50 mM Tris-HCl pH 7.5, 150 mM NaCl, 0.075% Brij-35; native conditions
# [2] = target: the molecule itself; test: SEC; 25 mL Sephacryl 200 (S-200) column, 20 mM phosphate buffer pH 7.4, 150 mM NaCl, 4 °C; refolded PKN1-(C2); calibrated column
# [3] = target: the molecule itself; test: MALDI-TOF mass spectrometry; sinapinic acid matrix in 70% acetonitrile, 0.05% TFA; positive ion-linear mode
Protein,stoichiometry N [1],stoichiometry N [2],stoichiometry N [3]
"PKN1-(25–485) (domain or fragment, PKC-related serine/threonine protein kinase N1 (PKN1), rat, residues 25-485 (HR1 and the AlphaFold-defined C2 region 310-473); The pET15b-PKN1-(25–485) plasmid was synthesized commercially; the vector probably adds an N-terminal His tag, and no cleavage is described; also called histidine-tagged PKN1 (residues 25–485)) not shown",3,–,–
"PKN1-(C2)-(342–605) (domain or fragment, PKC-related serine/threonine protein kinase N1 (PKN1), rat, residues 342-605 (C2-like domain and part of the hinge region), amplified by PCR from rat liver; Cloned between NdeI and XhoI of pET15b; this vector probably adds an N-terminal His tag with a thrombin site, and no cleavage is described; also called PKN1-(342–605); histidine-tagged PKN1 (residues 342–605)) not shown",–,3 and 4,2

# From article PMC10956426, “Lipid-Binding Regions within PKC-Related Serine/Threonine Protein Kinase N1 (PKN1) Required for Its Regulation” (Biochemistry, 2024)
